T1: xCas12i v6.1 (N243R,E336R,V880R)
T1 chain: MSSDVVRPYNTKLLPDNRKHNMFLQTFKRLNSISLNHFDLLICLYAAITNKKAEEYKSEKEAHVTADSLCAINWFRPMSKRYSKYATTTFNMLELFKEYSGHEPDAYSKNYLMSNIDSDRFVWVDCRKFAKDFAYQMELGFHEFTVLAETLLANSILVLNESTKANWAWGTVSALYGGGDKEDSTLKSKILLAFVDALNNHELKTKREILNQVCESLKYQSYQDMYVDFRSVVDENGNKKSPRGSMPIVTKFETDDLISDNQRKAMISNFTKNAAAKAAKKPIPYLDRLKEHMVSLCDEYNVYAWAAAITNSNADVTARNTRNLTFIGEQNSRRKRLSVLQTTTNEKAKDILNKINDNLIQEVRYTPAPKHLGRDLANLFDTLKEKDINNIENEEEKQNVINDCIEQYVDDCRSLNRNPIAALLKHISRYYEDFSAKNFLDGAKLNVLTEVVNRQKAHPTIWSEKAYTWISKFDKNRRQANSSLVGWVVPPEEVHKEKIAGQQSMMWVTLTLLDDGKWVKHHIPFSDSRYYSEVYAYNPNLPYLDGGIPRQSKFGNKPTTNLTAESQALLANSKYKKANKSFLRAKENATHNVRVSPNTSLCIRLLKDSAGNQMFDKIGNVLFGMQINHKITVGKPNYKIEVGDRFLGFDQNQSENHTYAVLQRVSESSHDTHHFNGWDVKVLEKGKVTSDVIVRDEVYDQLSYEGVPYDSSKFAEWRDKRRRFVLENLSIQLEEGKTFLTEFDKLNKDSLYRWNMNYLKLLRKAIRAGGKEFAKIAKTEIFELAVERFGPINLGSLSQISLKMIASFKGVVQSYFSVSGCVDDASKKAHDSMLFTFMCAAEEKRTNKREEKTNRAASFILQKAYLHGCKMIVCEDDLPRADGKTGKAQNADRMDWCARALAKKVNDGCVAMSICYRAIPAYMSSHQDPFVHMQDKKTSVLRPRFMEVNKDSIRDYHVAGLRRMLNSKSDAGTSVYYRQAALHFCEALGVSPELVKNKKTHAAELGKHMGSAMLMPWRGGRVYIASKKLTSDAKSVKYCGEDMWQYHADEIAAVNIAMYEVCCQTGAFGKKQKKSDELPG

T2: hfCas12Max (v6.3) (N243R,E336R,D892R)
T2 chain: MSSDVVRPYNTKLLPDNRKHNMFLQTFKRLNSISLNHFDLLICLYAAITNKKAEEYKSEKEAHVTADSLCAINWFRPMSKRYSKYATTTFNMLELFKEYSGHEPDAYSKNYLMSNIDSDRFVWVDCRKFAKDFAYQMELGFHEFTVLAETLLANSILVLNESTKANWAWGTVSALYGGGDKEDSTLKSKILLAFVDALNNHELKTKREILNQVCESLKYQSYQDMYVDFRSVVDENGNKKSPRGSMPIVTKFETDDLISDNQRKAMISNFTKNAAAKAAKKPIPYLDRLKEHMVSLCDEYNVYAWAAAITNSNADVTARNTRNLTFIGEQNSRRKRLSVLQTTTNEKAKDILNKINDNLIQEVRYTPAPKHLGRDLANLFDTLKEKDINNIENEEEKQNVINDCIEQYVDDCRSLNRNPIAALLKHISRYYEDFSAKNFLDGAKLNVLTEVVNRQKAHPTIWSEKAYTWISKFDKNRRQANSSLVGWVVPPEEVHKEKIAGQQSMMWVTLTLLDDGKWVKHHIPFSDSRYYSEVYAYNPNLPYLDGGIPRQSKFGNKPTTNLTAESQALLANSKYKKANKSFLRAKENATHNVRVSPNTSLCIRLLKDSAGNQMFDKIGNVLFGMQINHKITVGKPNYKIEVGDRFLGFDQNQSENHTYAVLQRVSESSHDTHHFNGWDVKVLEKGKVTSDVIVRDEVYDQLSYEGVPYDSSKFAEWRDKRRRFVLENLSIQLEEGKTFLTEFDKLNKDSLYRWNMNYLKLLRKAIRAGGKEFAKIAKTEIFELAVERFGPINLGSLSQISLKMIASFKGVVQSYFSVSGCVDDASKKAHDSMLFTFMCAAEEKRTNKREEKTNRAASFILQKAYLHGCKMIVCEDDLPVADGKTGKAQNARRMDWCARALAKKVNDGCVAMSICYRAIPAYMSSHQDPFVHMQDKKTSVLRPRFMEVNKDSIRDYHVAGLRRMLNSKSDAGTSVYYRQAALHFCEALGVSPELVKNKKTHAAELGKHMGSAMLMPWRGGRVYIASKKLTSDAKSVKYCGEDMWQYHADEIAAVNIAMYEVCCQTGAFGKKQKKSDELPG


Assays:
Conditions in all cases: tags: NLS
xCas12i v6.1 [1] = target: T1, xCas12i v6.1; test: cell_activity; PAM TTTG; on-target
hfCas12Max (v6.3) [2] = target: T2, hfCas12Max (v6.3); test: cell_activity; PAM TTTG; on-target
xCas12i v6.1 [3] = target: T1, xCas12i v6.1; test: cell_activity; PAM TTTG; OT-1
Procedure: (§1) HEK293T cells were cultured in 24-well tissue culture plates according to standard methods for 12 hours, before the reporter and expression plasmids were co-transfected into the cells using standard polyethyleneimine (PEI) transfection. The transfected cells were then cultured at 37° C. under 5% CO₂ for 48 hours. Then the cultured cells were analyzed by flow cytometry for BFP, EGFP, and mCherry fluorescent signals. A “blank” control group was also set up, where only the reporter plasmid was transfected, and no expression plasmid was introduced.
(§2) A dual plasmid fluorescent reporter system for evaluation of off-target dsDNA cleavage activity (off-target reporter system; referring to “Off-Target Reporter” in FIG. 1B) was established, which was similar to the dual plasmid fluorescent reporter system in Example 6 for evaluation of (on-target) dsDNA cleavage activity, except that the insertion sequence of the EGxxxxFP coding sequence contains an TTR off-target protospacer sequence (one of SEQ ID NOs: 127-129) containing one or more mismatches (bold, underlined) with a TTR-targeting spacer sequence (SEQ ID NO: 130) in the gRNA, rather than containing a TTR on-target protospacer sequence (SEQ ID NO: 130; which is the same as SEQ ID NO: 107 in Example 5); DR-T1 sequence (SEQ ID NO: 451) was used. To save drafting, the on-target protospacer sequence/spacer sequence in Table 7 refer to both the protospacer sequence (a DNA sequence) and the corresponding spacer sequence (an RNA sequence) with any “T” in the sequence when referring to a protospacer sequences standing for “T” and when referring to a such spacer sequence standing for “U”, although the assigned SEQ ID NO: 130 in the sequence listing is annotated as DNA.

hfCas12Max (v6.3) [4] = target: T2, hfCas12Max (v6.3); test: cell_activity; PAM TTTG; OT-1
Procedure: as §1, §2

Binder	activity (xCas12i v6.1 [1])	activity (hfCas12Max (v6.3) [2])	activity (xCas12i v6.1 [3])	activity (hfCas12Max (v6.3) [4])
TTR.2 crRNA ; TTR ON.1 (ssRNA ; dsDNA) RNA: AUGACUCAGAAAUGUGUCCCCAGUUGACACUAGAAGGGAUAUACAAAGUGGA DNA 1: TTTGTAGAAGGGATATACAAAGTGGA DNA 2: TCCACTTTGTATATCCCTTCTACAAA	75.7%	77.7%		
TTR.2 crRNA ; TTR OT.1 (ssRNA ; dsDNA) RNA: AUGACUCAGAAAUGUGUCCCCAGUUGACACUAGAAGGGAUAUACAAAGUGGA DNA 1: TTTGTAGAAGGGATATAGAAAGTATC DNA 2: GATACTTTCTATATCCCTTCTACAAA			2.04%	1.55%

Reference: US20250283063, “NOVEL CRISPR-CAS12I SYSTEMS AND USES THEREOF” (HUIDAGENE THERAPEUTICS (SINGAPORE) PTE. LTD., published 2025)
